Patent publication US20250121002A1 (NOILE IMMUNE BIOTECH, published 2025)
Where a chain is given by its changes, count along the chain named.

B1: third generation anti-EGFRviiiCAR with scFv S#026 VL25VH (SG) of the 1B10-1A12 clone, on PRIME EGFRviii CAR-T cells (other)
chain: DVVMTQTPLSLPVSLEDQASISCRSSQSLVHSSGKTYLQWYLQKPGQSPKLLIYSVSNRFSGVPDRFSGSGSGRDFTLKISRVEAEDLGVYFCSQSTHVPWTFGGGTKLEIKSSADDAKKDAAKKDDAKKDDAKKDGQVTLKESGPGILQPSQTLSLTCSFSGFSLSTSGMGVSWIRQPSGKGLEWLAHIFWDDDKRYNPSLKSRLTISKDTSTNQVFLKITSVDTADTATYYCARNYGFDVWGAGTTVTVSS
notes: also called PRIME EGFRviii CAR-T cells based on the 1B10-1A12 clone; not shown: rest of the third generation CAR: human CD8 transmembrane region and human CD28-4-1BB-CD3zeta intracellular signal trans
B2: anti-EGFRviiiCAR with VL25VH (SG) type scFv based on the 2H9-1B5 clone, on PRIME EGFRviii CAR-T cells (other)
chain: B1 chain with M4V, Q27R, S81N, F161L, F191Y, K196T, S204R
notes: also called PRIME EGFRviii CAR-T cells based on the 2H9-1B5 clone; not shown: rest of the CAR, produced 'in a manner similar to that based on the 1B10-1A12 clone' (third generation: CD8 transmembran)
B3: anti-EGFRviiiCAR with VL25VH (SG) type scFv based on the 3C2-1B10 clone, on PRIME EGFRviii CAR-T cells (other)
chain: DVVVTQTPLSLPVSLGDQASISCRSSQSLVHSSGITYLQWYLQKPGQSPKLLIYKVSTRFSGVPDRFSGSGSGTDFTLRISRVEAEELGVYFCSQSTHIPWTFGGGTKLEIKSSADDAKKDAAKKDDAKKDDAKKDGQVTLKESGPGILQPSQTLSLACSFSGFSLSTSGMGVSWIRQPSGKGLEWLAHIYWDDDRRYNPSLKSRLTISRDTSSNQVFLRITSVDTADTATYYCARNYGFDVWGAGTTVTVSS
notes: also called PRIME EGFRviii CAR-T cells based on the 3C2-1B10 clone; not shown: rest of the CAR, produced 'in a manner similar to that based on the 1B10-1A12 clone' (third generation: CD8 transmembran)

target: T1, recombinant EGFRviii protein (UniProt P00533 25-645); assay: flow cytometry; CAR-T cells stained with recombinant EGFRviii protein
T1 construct: EGFRviii is a deletion variant of it; The construct is not described
Source text: CytoFLEX S (manufactured by Beckman Coulter, Inc.) was used as the flow cytometer, and FlowJo software (manufactured by Tree Star, Inc.) was used for data analysis.

Point of comparison: B3, “flow cytometer measurement result (percent of cells stained with recombinant EGFRviii protein)” value 1.4%. Against it:
- B1 — higher, 32.4%
- B2 — higher, 3.6%
